Experimental data from patent US20240269303A1, “CELL TARGETING CONSTRUCTS AND USES THEREOF” (Research Development Foundation, priority 2022, published 2024).
Like-named read-outs stand apart in the source and are kept apart here.

Key:
[1] = tested on: OVCAR8/LGR5 cells; assay: Growth rate inhibition assay (CCK8, 120 h exposure); format: cell-based, human
[2] = Stability of FcST4-MMAE (storage, low pH, freeze and thaw); format: physicochemical
Experimental: Based on the hypothesis that RSPO1 could be used to target cytotoxic drugs selectively to CSC, a compound that contained 2 binding domains and armed this with the cytotoxin monomethylaurostatin (R1FF-MMAE) was generated. Since affinity of a ligand can be affected by the number of binding sites, tests were performed to see if the potency of R1FF-MMAE could be further enhanced by increasing the number of binding domains. A vector capable of expressing a protein containing 4 modified binding domains was constructed, and the FcST4-His protein was successfully produced in transiently transfected HEK293E cells and purified using nickel and ion exchange resins. Following attaching MMAE to the polypeptide using the sortase reaction, this drug (FcST4-MMAE) was characterized using gel electrophoresis, HPLC analysis on ion exchange and size exclusion columns, Western blot, and cytotoxicity testing.
To assess the stability of the FcST4-MMAE molecule, the sample was subjected to multiple freeze and thaw cycles.

[3] = tested on: HEK293e empty vector cells versus cells overexpressing LGR5 receptors; assay: FcST4-MMAE cytotoxicity assay (CCK8, day 6); format: cell-based, human; conditions: batches 2-6
[4] = tested on: OVCAR8 cells expressing empty vector versus cells overexpressing LGR5 receptors; assay: FcST4-MMAE cytotoxicity assay; format: cell-based, human
[5] = Plasma pharmacokinetics after IV injection (ELISA)
[6] = OVCAR8/EV and OVCAR8/LGR5, proteins produced in ExpiCHO
[7] = OVCAR8/EV vs OVCAR8/LGR5, 120 h, Fu1/Fu2 binding-disabling mutation study

B1: FcF2Δlinker-MMAE (conjugate)
chain: EPKSCDKTHTCPPCPAPELLGGPSVFLFPPKPKDTLMISRTPEVTCVVVDVSHEDPEVKFNWYVDGVEVHNAKTKPREEQYNSTYRVVSVLTVDHHDWLNGKEYKCKVSNKALPAPIEKTISKAKGQPREPQVYTLPPSRDELTKNQVSLTCLVKGFYPSDIAVEWESNGQPENNYKTTPPVLDSDGSFFLYSKLTVDKSRWQQGNVFSCSVMHEALHSHYTQKSLSLSPGKSRGIKGKRQRRISAEGSQACAKGCELCSEVNGCLKCSPKLFILLERNDIRQVGVCLPSCPPGYFDARNPDMNKCIKCKIEHCEACFSHNFCTKCKEGLYLHKGRCYPACPEGSSAANGTMECSSPLPETGGG
modifications: non-natural residues
- IC50 values or degree of selectivity compared with FcF2-MMAE [1, 6]: no clear differences in IC50 values or degree of selectivity
- potency compared with FcF2-MMAE [1, 6]: appeared to be less potent against both LGR5-poor and LGR5-rich cells

B2: FcST4-MMAE: Mutated Fc with two receptor binding domains (ST) in series per chain (4 in dimer), sortase-conjugated to MMAE (conjugate)
chain: EPKSCDKTHTCPPCPAPELLGGPSVFLFPPKPKDTLMISRTPEVTCVVVDVSHEDPEVKFNWYVDGVEVHNAKTKPREEQYNSTYRVVSVLTVDHHDWLNGKEYKCKVSNKALPAPIEKTISKAKGQPREPQVYTLPPSRDELTKNQVSLTCLVKGFYPSDIAVEWESNGQPENNYKTTPPVLDSDGSFFLYSKLTVDKSRWQQGNVFSCSVMHEALHSHYTQKSLSLSPGKGGGGSGGGGSSRGIKGKRQRRISAEGSQACAKGCELCSEVNGCLKCSPKLFILLERNDIRQVGVCLPSCPPGYFDARNPDMNKCIKCKIEHCEACFSHNFCTKCKEGLYLHKGRCYPACPEGSSAANGTMECSSPGGGGSGGGGSSRGIKGKRQRRISAEGSQACAKGCELCSEVNGCLKCSPKLFILLERNDIRQVGVCLPSCPPGYFDARNPDMNKCIKCKIEHCEACFSHNFCTKCKEGLYLHKGRCYPACPEGSSAANGTMECSSPGGGGSGGGGSLPETGGG
modifications: non-natural residues
- stability to freeze and thaw cycles (SEC130 trace) ([2]; 4 cycles): no significant change in the SEC130 trace
- stability ([2]; at 4° C.): remarkably stable
- stability ([2]; low pH of 3.0): remarkably stable
- difference in targeted killing, empty vector vs LGR5-overexpressing cells [3]: not statistically significant
- difference in targeted killing, empty vector vs LGR5-overexpressing cells ([4]; OVCAR8): not statistically significant
- effect of increase in binding domains on potency ([4]; cytotoxicity testing): did not enhance potency

B3: FcF2-Q71R-MMAE (conjugate)
chain: EPKSCDKTHTCPPCPAPELLGGPSVFLFPPKPKDTLMISRTPEVTCVVVDVSHEDPEVKFNWYVDGVEVHNAKTKPREEQYNSTYRVVSVLTVDHHDWLNGKEYKCKVSNKALPAPIEKTISKAKGQPREPQVYTLPPSRDELTKNQVSLTCLVKGFYPSDIAVEWESNGQPENNYKTTPPVLDSDGSFFLYSKLTVDKSRWQQGNVFSCSVMHEALHSHYTQKSLSLSPGKGGGGSGGGGSSRGIKGKRQRRISAEGSQACAKGCELCSEVNGCLKCSPKLFILLERNDIRRVGVCLPSCPPGYFDARNPDMNKCIKCKIEHCEACFSHNFCTKCKEGLYLHKGRCYPACPEGSSAANGTMECSSPGGGGSGGGGSLPETGGG
modifications: non-natural residues
- IC50 ratio [1, 7]: 5.1

B4: FcF2-R30A-MMAE: FcF2-MMAE with R30A substitution in the Fu1-Fu2 region (SEQ ID NO: 102) (conjugate)
chain: EPKSCDKTHTCPPCPAPELLGGPSVFLFPPKPKDTLMISRTPEVTCVVVDVSHEDPEVKFNWYVDGVEVHNAKTKPREEQYNSTYRVVSVLTVDHHDWLNGKEYKCKVSNKALPAPIEKTISKAKGQPREPQVYTLPPSRDELTKNQVSLTCLVKGFYPSDIAVEWESNGQPENNYKTTPPVLDSDGSFFLYSKLTVDKSRWQQGNVFSCSVMHEALHSHYTQKSLSLSPGKGGGGSGGGGSSRGIKGKRQARISAEGSQACAKGCELCSEVNGCLKCSPKLFILLERNDIRQVGVCLPSCPPGYFDARNPDMNKCIKCKIEHCEACFSHNFCTKCKEGLYLHKGRCYPACPEGSSAANGTMECSSPGGGGSGGGGSLPETGGG
modifications: non-natural residues
- potency and selectivity for LGR5-rich cells compared with FcF2-MMAE (WT) [1]: neither the R28A nor the R30A mutation altered potency of selectivity

B5: FcF2-R28A-MMAE: FcF2-MMAE with R28A substitution in the Fu1-Fu2 region (SEQ ID NO: 98) (conjugate)
chain: EPKSCDKTHTCPPCPAPELLGGPSVFLFPPKPKDTLMISRTPEVTCVVVDVSHEDPEVKFNWYVDGVEVHNAKTKPREEQYNSTYRVVSVLTVDHHDWLNGKEYKCKVSNKALPAPIEKTISKAKGQPREPQVYTLPPSRDELTKNQVSLTCLVKGFYPSDIAVEWESNGQPENNYKTTPPVLDSDGSFFLYSKLTVDKSRWQQGNVFSCSVMHEALHSHYTQKSLSLSPGKGGGGSGGGGSSRGIKGKAQRRISAEGSQACAKGCELCSEVNGCLKCSPKLFILLERNDIRQVGVCLPSCPPGYFDARNPDMNKCIKCKIEHCEACFSHNFCTKCKEGLYLHKGRCYPACPEGSSAANGTMECSSPGGGGSGGGGSLPETGGG
modifications: non-natural residues
- potency and selectivity for LGR5-rich cells compared with FcF2-MMAE (WT) [1]: neither the R28A nor the R30A mutation altered potency of selectivity
- increase of AUC0-120 versus FcF2-MMAE (WT) ([5]; IV injection): 3.4 fold
- initial half-life versus FcF2-MMAE (WT) ([5]; IV injection): prolonged the initial half-life
- plasma concentration higher than that of FcF2-MMAE ([5]; early phase of the plasma decay curve): > 2 orders of magnitude

B6: FcF-Q71R-F106R-F110R-MMAE (conjugate)
chain: EPKSCDKTHTCPPCPAPELLGGPSVFLFPPKPKDTLMISRTPEVTCVVVDVSHEDPEVKFNWYVDGVEVHNAKTKPREEQYNSTYRVVSVLTVDHHDWLNGKEYKCKVSNKALPAPIEKTISKAKGQPREPQVYTLPPSRDELTKNQVSLTCLVKGFYPSDIAVEWESNGQPENNYKTTPPVLDSDGSFFLYSKLTVDKSRWQQGNVFSCSVMHEALHSHYTQKSLSLSPGKGGGGSGGGGSSRGIKGKRQRRISAEGSQACAKGCELCSEVNGCLKCSPKLFILLERNDIRRVGVCLPSCPPGYFDARNPDMNKCIKCKIEHCEACRSHNRCTKCKEGLYLHKGRCYPACPEGSSAANGTMECSSPGGGGSGGGGSLPETGGG
modifications: non-natural residues
- IC50 ratio [1, 7]: selectivity was abolished

B7: FcF2-F106R-F110R-MMAE (conjugate)
chain: EPKSCDKTHTCPPCPAPELLGGPSVFLFPPKPKDTLMISRTPEVTCVVVDVSHEDPEVKFNWYVDGVEVHNAKTKPREEQYNSTYRVVSVLTVDHHDWLNGKEYKCKVSNKALPAPIEKTISKAKGQPREPQVYTLPPSRDELTKNQVSLTCLVKGFYPSDIAVEWESNGQPENNYKTTPPVLDSDGSFFLYSKLTVDKSRWQQGNVFSCSVMHEALHSHYTQKSLSLSPGKGGGGSGGGGSSRGIKGKRQRRISAEGSQACAKGCELCSEVNGCLKCSPKLFILLERNDIRQVGVCLPSCPPGYFDARNPDMNKCIKCKIEHCEACRSHNRCTKCKEGLYLHKGRCYPACPEGSSAANGTMECSSPGGGGSGGGGSLPETGGG
modifications: non-natural residues
- IC50 ratio [1, 7]: 2.1

B8: FcF2-PNU159682: FcF2-His conjugated with PNU159682, an anthracycline derivative, using sortase A (conjugate)
chain: EPKSCDKTHTCPPCPAPELLGGPSVFLFPPKPKDTLMISRTPEVTCVVVDVSHEDPEVKFNWYVDGVEVHNAKTKPREEQYNSTYRVVSVLTVDHHDWLNGKEYKCKVSNKALPAPIEKTISKAKGQPREPQVYTLPPSRDELTKNQVSLTCLVKGFYPSDIAVEWESNGQPENNYKTTPPVLDSDGSFFLYSKLTVDKSRWQQGNVFSCSVMHEALHSHYTQKSLSLSPGKGGGGSGGGGSSRGIKGKRQRRISAEGSQACAKGCELCSEVNGCLKCSPKLFILLERNDIRQVGVCLPSCPPGYFDARNPDMNKCIKCKIEHCEACFSHNFCTKCKEGLYLHKGRCYPACPEGSSAANGTMECSSPGGGGSGGGGSLPET
modifications: cyclised or stapled
- IC50 ratio [1]: approximately 10
